Values of other authors in publication PMC8470622.
Where “and” joins values, the source holds several entries; their conditions need not be identical. Identical values can stand only once. Like-named read-outs stand apart in the source and are kept apart here.

Legend:
[1] = target: EGFR (Homo sapiens) (UniProt P00533)
[2] = target: EGFR (Homo sapiens) (UniProt P00533); assay: radioligand
[3] = target: EGFR (high-affinity state) (Homo sapiens) (UniProt P00533); assay: radioligand
[4] = target: EGFR (low-affinity state) (Homo sapiens) (UniProt P00533); assay: radioligand

Kd [1]: 0.3 nM and 0.32 nM
Kd [2]: 1.52 nM
Kd [3]: 1.06 nM
Kd [4]: 2.85 nM
Substance: EGF (from UniProt P01133)
